Here are results for 65 variants from publication PMC10244618.

B1: NF2 (merlin) isoform 7, human, full length (507 aa, lacks exons 2-3 = isoform-1 residues 39-121; exon-16 C-terminus), P35240-4 (parent)
chain: MAGAIASRMSFSSLKRKQPKTFTVRIVTMDAEMEFNCEVKKQILDEKIYCPPEASVLLASYAVQAKYGDYDPSVHKRGFLAQEELLPKRVINLYQMTPEMWEERITAWYAEHRGRARDEAEMEYLKIAQDLEMYGVNYFAIRNKKGTELLLGVDALGLHIYDPENRLTPKISFPWNEIRNISYSDKEFTIKPLDKKIDVFKFNSSKLRVNKLILQLCIGNHDLFMRRRKADSLEVQQMKAQAREEKARKQMERQRLAREKQMREEAERTRDELERRLLQMKEEATMANEALMRSEETADLLAEKAQITEEEAKLLAQKAAEAEQEMQRIKATAIRTEEEKRLMEQKVLEAEVLALKMAEESERRAKEADQLKQDLQEAREAERRAKQKLLEIATKPTYPPMNPIPAPLPPDIPSFNLIGDSLSFDFKDTDMKRLSMEIEKEKVEYMEKSKHLQEQLNELKTEIEALKLKERETALDILHNENSDRGGSSKHNTIKKPQAQGRRPICI

Several values for one entry are separate records, joined by “and”; a condition that tells them apart may be missing. Equal entries are not always repeated.

Variants of B1 are the subject of one assay. As to the kind of experiment: reverse yeast two-hybrid deep mutational scan (rY2H-seq): NF2 isoform 7 mutant library as bait mated with wild-type prey strains; selection on medium lacking adenine for non-interacting pairs; NextSeq paired-end sequencing; enrichment vs …. The following applies: with EMILIN1 (elastin microfibril interfacer 1), Q9Y6C2; yeast diploids after mating (RBait_S3 x RPrey_S3), 30 °C, selection for reporter genes on NB agar; human tyrosine kinase ABL2 co-expressed as the active kinase …; HIGHER = WEAKER BINDING (the opposite of display enrichments): higher = stronger loss of interaction: reverse Y2H selects yeast in which bait and prey do NOT interact (growth without adenine), so a …; hits-only table; scale: rY2H score; numbering: uniprot, sequence starts at 1.
Take K313T: the enrichment was 6.

Regarding A247K, the enrichment came out at 4.58.

For S13F, the enrichment amounted to 1.87.

On to T106L, for which the enrichment is 4.33.

Regarding P405L, the enrichment was found to be 5.05.

For D369K, the enrichment was 2.69 and 1.81.

As to E259K, the enrichment came out at 3.41.

Take L342T: the enrichment worked out at 4.63.

For P407R, the enrichment came out at 4.09.

For P407K, the enrichment was 2.11.

Turning to F415A, the enrichment was 1.74.

With K144L, the enrichment was found to be 2.68.

In the case of M446V, the enrichment was 2.65.

Take Q376K: the enrichment is 2.11.

As for V56K, the enrichment stood at 3.86.

For the variant E391L, the enrichment is 2.

In the case of E377A, the enrichment was found to be 4.03.

With E148K, the enrichment is 2.78 and 2.12.

Take E264A: the enrichment came out at 12.8.

Take K170L: the enrichment was found to be 4.44.

As for E123D, the enrichment was determined as 1.52.

For F426V, the enrichment came to 2.88.

Turning to E323L, the enrichment worked out at 2.75.

For the variant E323G, the enrichment came to 1.92.

Consider E323A, for which the enrichment amounted to 1.45.

On to A381V, for which the enrichment stood at 1.43.

Turning to A381M, the enrichment amounted to 5.46.

In the case of A381T, the enrichment is 1.45.

As to A381L, the enrichment came out at 1.87.

As to A381E, the enrichment was determined as 1.42.

Take R258V: the enrichment turned out to be 2.52.

With V209A, the enrichment came out at 5.24.

As for I307L, the enrichment stood at 3.37.

Consider I307Y, for which the enrichment amounted to 2.93.

With R341T, the enrichment is 3.59.

Consider P410K, for which the enrichment was found to be 1.53.

Consider E111A, for which the enrichment turned out to be 4.1.

Turning to R77W, the enrichment is 1.39.

With G146A, the enrichment is 3.91 and 4.27.

As for D162P, the enrichment turned out to be 2.72.

On to P98L, for which the enrichment worked out at 1.71.

For E325A, the enrichment came to 2.68.

E325T: the enrichment turned out to be 6.21.

As for K330A, the enrichment amounted to 2.6.

On to S489E, for which the enrichment amounted to 7.56.

Staying with this assay, now noted: with KDM1A (lysine-specific histone demethylase 1A; the table's label AOF2 is a gene synonym of KDM1A), O60341; yeast diploids after mating (RBait_S3 x RPrey_S3), 30 °C, selection for reporter genes on NB agar; human ABL2 co-expressed as the kinase-dead K35M mutant …; HIGHER = WEAKER BINDING (the opposite of display enrichments): higher = stronger loss of interaction: reverse Y2H selects yeast in which bait and prey do NOT interact (growth without adenine), so a …; hits-only table; scale: rY2H score; numbering: uniprot, sequence starts at 1.
With K313T, the enrichment was 11.8 and 11.3.

With K313L, the enrichment turned out to be 2.56.

Consider A302T, for which the enrichment was 1.57.

For A247E, the enrichment was determined as 7.37.

Regarding R227E, the enrichment came to 14.7.

Consider E344V, for which the enrichment came to 1.58.

Turning to L353A, the enrichment came out at 2.32.

Regarding P405S, the enrichment came out at 6.05.

Take D369K: the enrichment turned out to be 2.15.

Regarding D411C, the enrichment came out at 2.42.

As for E295K, the enrichment was 1.91.

Consider M238I, for which the enrichment was found to be 2.35.

For the variant L342T, the enrichment is 2.83 and 2.72.

Regarding M357D, the enrichment was found to be 7.23.

For P407T, the enrichment worked out at 2.05.

P407K: the enrichment was 4.15.

For the variant V56K, the enrichment came to 8.67.

Regarding D71K, the enrichment is 5.71.

For the variant E123D, the enrichment was 1.75.

For the variant E123L, the enrichment is 1.42.

In the case of E323A, the enrichment is 1.84 and 3.01.

Regarding P192S, the enrichment was 1.69.

On to I307L, for which the enrichment is 2.24 and 1.83.

For the variant R341T, the enrichment stood at 2.28.

For P410K, the enrichment is 9.12 and 4.16.

On to N457T, for which the enrichment worked out at 2.31.

Consider N457S, for which the enrichment is 3.38.

On to Y67A, for which the enrichment is 3.02.

With S12L, the enrichment was 5.88.

Regarding E325A, the enrichment was found to be 3.73.

Turning to E325T, the enrichment was determined as 4.73.

As to K330A, the enrichment is 1.85.

Take L158I: the enrichment stood at 2.37.

The assay is the same for the next values; noted with them: with NF2 C-terminal domain (wild type; homomeric NF2-NF2 interaction), P35240; yeast diploids after mating (RBait_S3 x RPrey_S3), 30 °C, selection for reporter genes on NB agar; human ABL2 co-expressed as the kinase-dead K35M mutant …; HIGHER = WEAKER BINDING (the opposite of display enrichments): higher = stronger loss of interaction: reverse Y2H selects yeast in which bait and prey do NOT interact (growth without adenine), so a …; hits-only table; partner unresolved; scale: rY2H score; numbering: uniprot, sequence starts at 1.
Take K313T: the enrichment is 6.36 and 7.06.

As for K313L, the enrichment was 2.4.

Consider A247E, for which the enrichment was 6.62.

On to P405L, for which the enrichment is 7.16.

D369K: the enrichment came to 2.61.

As to E295K, the enrichment is 2.66.

Consider M357D, for which the enrichment stood at 2.94.

In the case of F415A, the enrichment amounted to 2.73.

E323L: the enrichment was found to be 3.82.

As to E323A, the enrichment was 1.8.

For the variant A381T, the enrichment was determined as 1.6.

Turning to R258V, the enrichment is 1.38.

The same assay, now with this note: with PIK3R3 (phosphatidylinositol 3-kinase regulatory subunit gamma), Q92569; yeast diploids after mating (RBait_S3 x RPrey_S3), 30 °C, selection for reporter genes on NB agar; human tyrosine kinase ABL2 co-expressed as the active kinase …; HIGHER = WEAKER BINDING (the opposite of display enrichments): higher = stronger loss of interaction: reverse Y2H selects yeast in which bait and prey do NOT interact (growth without adenine), so a …; hits-only table; scale: rY2H score; numbering: uniprot, sequence starts at 1.
Turning to K313T, the enrichment was 9.73 and 7.27.

Turning to A302T, the enrichment was 3.87.

In the case of R227E, the enrichment amounted to 36.3.

Consider D369K, for which the enrichment worked out at 4.98.

As for M238I, the enrichment stood at 2.66.

Take P407T: the enrichment came out at 2.62.

Turning to P407K, the enrichment was found to be 2.65.

With V56K, the enrichment was found to be 3.28.

Take A381V: the enrichment is 1.6.

Regarding A381M, the enrichment was 8.42.

With R258V, the enrichment worked out at 1.6.

Turning to L158I, the enrichment is 1.48 and 2.46.

The same assay, now with this note: with KDM1A (lysine-specific histone demethylase 1A; the table's label AOF2 is a gene synonym of KDM1A), O60341; yeast diploids after mating (RBait_S3 x RPrey_S3), 30 °C, selection for reporter genes on NB agar; human tyrosine kinase ABL2 co-expressed as the active kinase …; HIGHER = WEAKER BINDING (the opposite of display enrichments): higher = stronger loss of interaction: reverse Y2H selects yeast in which bait and prey do NOT interact (growth without adenine), so a …; hits-only table; scale: rY2H score; numbering: uniprot, sequence starts at 1.
In the case of P407K, the enrichment amounted to 2.54.

Turning to K144L, the enrichment stood at 3.56.

Consider E148K, for which the enrichment was found to be 1.49.

E323L: the enrichment is 1.55.

On to I307L, for which the enrichment stood at 4.9.

Turning to E111A, the enrichment was 1.51.

For the variant K330A, the enrichment came to 4.79.
